Patent US20240158512A1 (TRUEBINDING, published 2024)
Where “and” joins values, the source holds several entries; their conditions need not be identical. Identical values can stand only once. Each block holds one binder with its values, some of them ahead of it.

What was measured:
Galectin-3 [1] = molecular target: T1, Galectin-3 (UniProt P17931 1-250, limits assumed); assay: BLI; after 3 freeze/thaws, 100% vol. of container
T1 construct: Target of the anti-Gal3 antibody TB006; also called Gal3; GAL3

Galectin-3 [2] = molecular target: T1, Galectin-3; assay: BLI; after 5 freeze/thaws, 50% vol. of container
Galectin-3 [3] = molecular target: T1, Galectin-3; assay: ELISA blocking assay; TB006 diluted to 0.31 mg/mL in 0.9% NaCl, 25 C, 0 h; blocked partner not named
Galectin-3 [4] = molecular target: T1, Galectin-3; assay: BLI; after 4 C for 18 months
Galectin-3 [5] = molecular target: T1, Galectin-3; assay: ELISA (Biological Activity); long-term stability 5 C, 3 months
Galectin-3 [6] = molecular target: T1, Galectin-3; assay: ELISA (Biological Activity); long-term stability 5 C, 0 months
Galectin-3 [7] = molecular target: T1, Galectin-3; assay: BLI; after 4 C for 6 months
Galectin-3 [8] = molecular target: T1, Galectin-3; assay: BLI; after 40 C for 14 days
Galectin-3 [9] = molecular target: T1, Galectin-3; assay: BLI; after 25 C for 14 days
Galectin-3 [10] = molecular target: T1, Galectin-3; assay: BLI (Binding Activity); accelerated stability 25 C/60% RH, 3 months
Galectin-3 [11] = molecular target: T1, Galectin-3; assay: BLI (Binding Activity); accelerated stability 25 C/60% RH, 1 month
Galectin-3 [12] = molecular target: T1, Galectin-3; assay: ELISA blocking assay; TB006 diluted to 0.31 mg/mL in 0.9% NaCl, 25 C, 0.5 h; blocked partner not named
Galectin-3 [13] = molecular target: T1, Galectin-3; assay: BLI; after 25 C for 1 month
Galectin-3 [14] = molecular target: T1, Galectin-3; assay: ELISA (Biological Activity); long-term stability 5 C, 1 month
Galectin-3 [15] = molecular target: T1, Galectin-3; assay: BLI; after 5 freeze/thaws, 25% vol. of container
Galectin-3 [16] = molecular target: T1, Galectin-3; assay: BLI; after 3 freeze/thaws, 50% vol. of container
Galectin-3 (Gal3) [17] = molecular target: T2, Galectin-3 (Gal3) (UniProt P17931 1-250, limits assumed); assay: BLI; 20 mg/mL DS after agitation for 1 day
T2 construct: Target of TB006
Summary of the method: (§1)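 Each sample was taken either at time zero or after a stress step: shear from agitation, repeated freeze-thaw cycles, or storage at set temperatures, among them 40° C and cryogenic storage. The dissociation constant (Kd) for Galectin-3 binding came from biolayer interferometry.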

Galectin-3 (Gal3) [18] = molecular target: T2, Galectin-3 (Gal3); assay: BLI; 20 mg/mL DS after 40 C for 14 days
Galectin-3 (Gal3) [19] = molecular target: T2, Galectin-3 (Gal3); assay: BLI; 50 mg/mL DS after -80 C for 1 month
Galectin-3 (Gal3) [20] = molecular target: T2, Galectin-3 (Gal3); assay: BLI; 50 mg/mL DS after agitation for 3 days
Galectin-3 (Gal3) [21] = molecular target: T2, Galectin-3 (Gal3); assay: BLI; 20 mg/mL DS after 40 C for 7 days
Galectin-3 (Gal3) [22] = molecular target: T2, Galectin-3 (Gal3); assay: BLI; 20 mg/mL DS after -80 C for 6 months
Summary of the method: as §1

Galectin-3 (Gal3) [23] = molecular target: T2, Galectin-3 (Gal3); assay: BLI; 20 mg/mL DS after 25 C for 6 months
Summary of the method: as §1

Galectin-3 (Gal3) [24] = molecular target: T2, Galectin-3 (Gal3); assay: BLI; 50 mg/mL DS after -80 C for 6 months
Galectin-3 (Gal3) [25] = molecular target: T2, Galectin-3 (Gal3); assay: BLI; 50 mg/mL DS after 40 C for 28 days
Galectin-3 (Gal3) [26] = molecular target: T2, Galectin-3 (Gal3); assay: BLI; 50 mg/mL DS after 4 C for 1 month
Galectin-3 (Gal3) [27] = molecular target: T2, Galectin-3 (Gal3); assay: BLI; 20 mg/mL DS, time 0 control
Summary of the method: as §1

Galectin-3 (Gal3) [28] = molecular target: T2, Galectin-3 (Gal3); assay: BLI; 50 mg/mL DS after 4 C for 6 months
Galectin-3 (Gal3) [29] = molecular target: T2, Galectin-3 (Gal3); assay: BLI; 20 mg/mL DS after 40 C for 21 days
Summary of the method: as §1

Galectin-3 (Gal3) [30] = molecular target: T2, Galectin-3 (Gal3); assay: BLI; 20 mg/mL DS after 25 C for 14 days
Summary of the method: as §1

Galectin-3 (Gal3) [31] = molecular target: T2, Galectin-3 (Gal3); assay: BLI; 50 mg/mL DS after 40 C for 3 months
Galectin-3 (Gal3) [32] = molecular target: T2, Galectin-3 (Gal3); assay: BLI; 20 mg/mL DS after 4 C for 1 month

T2 sequence (P17931 whole entry): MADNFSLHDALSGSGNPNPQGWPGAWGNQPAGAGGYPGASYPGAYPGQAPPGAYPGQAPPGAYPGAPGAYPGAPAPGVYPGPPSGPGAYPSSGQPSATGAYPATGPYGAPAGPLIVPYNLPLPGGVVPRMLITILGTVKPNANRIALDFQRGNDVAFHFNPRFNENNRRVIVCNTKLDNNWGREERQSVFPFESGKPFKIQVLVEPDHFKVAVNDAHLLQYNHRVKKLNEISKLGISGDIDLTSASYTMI
T1 sequence (P17931 whole entry): as above

- Kd (Galectin-3 [1]): 2.7 nM
- Kd (Galectin-3 [2]): 3.1 nM
- IC50 (Galectin-3 [3]): 1.05 µg/mL
- Kd (Galectin-3 [4]): 2.1 nM
- IC50 (Galectin-3 [5]): 1.5 µg/mL
- IC50 (Galectin-3 [6]): 2.5 µg/mL
- Kd (Galectin-3 [7]): 2.3 nM
- Kd (Galectin-3 [8]): 2.5 nM
- Kd (Galectin-3 [9]): 2.6 nM
- Kd (Galectin-3 [10]): 3.1 nM
- Kd (Galectin-3 [11]): 2.5 nM
- IC50 (Galectin-3 [12]): 1.66 µg/mL and 1.34 µg/mL
- Kd (Galectin-3 [13]): 3.1 nM
- IC50 (Galectin-3 [14]): 1.8 µg/mL
- Kd (Galectin-3 [15]): 2.9 nM
- Kd (Galectin-3 [16]): 2.3 nM
B1: TB006 (antibody, human IgG4 S228P, kappa, V domains shown)
VH: QVQLVQSGAEVKKPGASVKVSCKASGYSFTNYYMHWVRQAPGQRLEWMGWIYPGSGNTNYNEKFQGRVTITADTSASTAYMELSSLRSEDTAVYYCSTAPGGFDVWGQGTTVTVSS
VL: DIVMTQTPLSLSVTPGQPASISCKSSKSLLHSDGITYLYWYLQKPGQSPQLLIYRMSNLASGVPDRFSGSGSGTDFTLKISRVEAEDVGVYYCAQMLEFPLTFGQGTKLEIKR
notes: Tested as formulated drug substance or drug product in 20 mM L-histidine, 5 mM methionine, 100 mM NaCl, 0.02% polysorbate 80, pH 5.8, or diluted in 0.9% saline; also called 4A11.H3L1; IMT006a

- Kd (Galectin-3 (Gal3) [17]): 3.1 nM
- Kd (Galectin-3 (Gal3) [18]): 2.9 nM
- Kd (Galectin-3 (Gal3) [19]): 2.3 nM
- Kd (Galectin-3 (Gal3) [20]): 3.7 nM
- Kd (Galectin-3 (Gal3) [21]): 2.9 nM
- Kd (Galectin-3 (Gal3) [22]): 2.7 nM
- Kd (Galectin-3 (Gal3) [23]): 3.4 nM
- Kd (Galectin-3 (Gal3) [24]): 1.8 nM
- Kd (Galectin-3 (Gal3) [25]): 2.3 nM
- Kd (Galectin-3 (Gal3) [26]): 2.1 nM
- Kd (Galectin-3 (Gal3) [27]): 2.9 nM
- Kd (Galectin-3 (Gal3) [28]): 2.1 nM
- Kd (Galectin-3 (Gal3) [29]): 2.6 nM
- Kd (Galectin-3 (Gal3) [30]): 2.7 nM
- Kd (Galectin-3 (Gal3) [31]): 3.1 nM
- Kd (Galectin-3 (Gal3) [32]): 3.7 nM
B2: TB006 (antibody, human IgG4 S228P, kappa, V domains shown)
VH: B1 VH
VL: B1 VL
notes: Full antibody tested as drug substance (DS) in 20 mM L-histidine, 5 mM methionine, 100 mM NaCl, 0.02% polysorbate-80, pH 5.8; also called 4A11.H3L1; IMT006a
